# According to FireProtDB (doi:10.1002/prot.24420):
# Several values for one entry are separate records, joined by “and”; a condition that tells them apart may be missing. Equal entries are not always repeated.
# B1: N715A, Q8GRA2 (parent)
# chain: MKKTRFPNKLNTLNTQRVLSKNSKRFTVTLVGVFLMIFALVTSMVGAKTVFGLVESSTPNAINPDSSSEYRWYGYESYVRGHPYYKQFRVAHDLRVNLEGSRSYQVYCFNLKKAFPLGSDSSVKKWYKKHDGISTKFEDYAISPRITGDELNQKLRAVMYNGHPQNANGIMEGLEPLNAIRVTQEAVWYYSDNAPISNPDESFKRESESNLVSTSQLSLMRQALKQLIDPNLATKMPKQVPDDFQLSIFESEDKGDKYNKGYQNLLSGGLVPTKPPTPGDPPMPPNQPQTTSVLIRKYAIGDYSKLLEGATLQLTGDNVNSFQARVFSSNDIGERIELSDGTYTLTELNSPAGYSIAEPITFKVEAGKVYTIIDGKQIENPNKEIVEPYSVEAYNDFEEFSVLTTQNYAKFYYAKNKNGSSQVVYCFNADLKSPPDSEDGGKTMTPDFTTGEVKYTHIAGRDLFKYTVKPRDTDPDTFLKHIKKVIEKGYREKGQAIEYSGLTETQLRAATQLAIYYFTDSAELDKDKLKDYHGFGDMNDSTLAVAKILVEYAQDSNPPQLTDLDFFIPNNNKYQSLIGTQWHPEDLVDIIRMEDKKEVIPVTHNLTLRKTVTGLAGDRTKDFHFEIELKNNKQELLSQTVKTDKTNLEFKDGKATINLKHGESLTLQGLPEGYSYLVKETDSEGYKVKVNSQEVANATVSKTGITSDETLAFENNKEPVVPTGVDQKINGYLALIVIAGISLGIWGIHTIRIRKHD
# Variants of: B1
# Conditions: Streptococcus pyogenes; pH 7.2; Thermal; CD; Potassium phosphate 50mM; structure 2XIC; whole UniProt chain shown
Variant,unfolding enthalpy (van 't Hoff),"change of melting temperature, mutant - wild type (higher = more stable)"
N715A,147 kcal/mol and 85.9 kcal/mol,
D595A N715A,62.1 kcal/mol and 71.4 kcal/mol,
D595A,108 kcal/mol and 115 kcal/mol,
C426A,113 kcal/mol and 123 kcal/mol,-1.7 °C and 0.2 °C
